Common to all, as to assay: HPLC nucleotide assay
The target of one series is T1, AtAdk (Arabidopsis thaliana, UniProt Q9LZG0).
T1 construct: gene ADK2
The series is classed as biochemical. To be noted: phosphate donor; 10 mM adenosine, 20 mM MgCl2, Tris-HCl pH 8.0, 45 °C.

Substrate in series [1]: Nc1ncnc2c1ncn2[C@@H]1O[C@H](COP(=O)(O)OP(=O)(O)O)[C@@H](O)[C@H]1O
The series is classed as biochemical, Sulfurovum lithotrophicum. To be noted: polyP6 as phosphate donor, MgCl2, Tris-HCl pH 8.0, 37 °C (routine assay). From the text:
HPLC nucleotide assay on SlPPK

Substrate in series [2]: Nc1ncnc2c1ncn2[C@@H]1O[C@H](COP(=O)(O)O)[C@@H](O)[C@H]1O
The class given is biochemical, Lampropedia hyalina. The conditions noted are these: polyP6 as phosphate donor, MgCl2, Tris-HCl pH 8.0, 37 °C (routine assay). From the text:
HPLC nucleotide assay on LhPPK

Three molecules from paper PMC10992290, “In vitro biosynthesis of ATP from adenosine and polyphosphate” (Bioresources and Bioprocessing, 2021) can be followed below.

T1 sequence (Q9LZG0 whole entry): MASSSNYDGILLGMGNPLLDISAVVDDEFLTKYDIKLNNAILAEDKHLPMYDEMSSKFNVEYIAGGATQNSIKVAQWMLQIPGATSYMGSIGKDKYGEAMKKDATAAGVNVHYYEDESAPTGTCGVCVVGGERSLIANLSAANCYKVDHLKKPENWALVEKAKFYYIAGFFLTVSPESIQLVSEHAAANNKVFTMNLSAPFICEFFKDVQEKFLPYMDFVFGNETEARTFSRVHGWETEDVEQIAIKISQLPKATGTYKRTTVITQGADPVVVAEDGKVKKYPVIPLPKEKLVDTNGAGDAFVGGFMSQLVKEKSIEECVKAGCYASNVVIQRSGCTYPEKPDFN

Take `Nc1ncnc2c1ncn2[C@@H]1O[C@H](COP(=O)(O)OP(=O)(O)OP(=O)(O)O)[C@@H](O)[C@H]1O` [ATP]: the HPLC nucleotide assay result on AtAdk is recorded as “conversion of adenosine to AMP by AtAdk, which required ATP as a phosphate donor”.

B1: SlPPK (Sulfurovum lithotrophicum) (protein)
chain: MKKNIYKKELYKLQVELVKFQKYVIEENVAVCLVLEGRDTAGKDGTIKRFTEHLSPREARTVALGVPSDKEKKSWYFQRYVPHLPSAGEIVFFNRSWYNRAGVEKVMGFCTKKQYKAFMEEVGSFEQMLTHSNIRFFKYYLDITKKEQKKRLEARKTDPLKQWKLSPIDAKAQKMWDAYSKARDDMFNKTSFIYAPWYVVHTDDKKEARINIMKHFLSLNDYPDKDKALLVYDHDVICKFDPVCYEKEMIAP
Consider B1, for which, in the series “HPLC nucleotide assay [1]”, the Km (as a rule, the concentration of substrate that gives half-maximal velocity) was 0.61 mM; the Vmax (as a rule, the top rate of the reaction or transport when substrate is in excess) was 1400 µM/min; the kcat (usually the number of substrate molecules converted per active site and unit of time at saturation) was 140 s⁻¹; the catalytic efficiency (kcat/Km) – broadly, the second-order rate constant that governs catalysis at low substrate concentration – was 230000 M⁻¹ s⁻¹.

B2: LhPPK (Lampropedia hyalina DSM 16112) (protein)
chain: MTRKESPPMEAFKKYRISPKNTLKDIDPSDKPFSFGTKKDELQRLDELAVELDDLQNTLYAGKRRKVLLILQGLDTSGKDGTIRWVFSRTSPLGVHVAAFKAPSERERAHDFLWRCHAVVPANGELTVWNRSHYEDVLVPPVEGWIDKAETQRRYGHINDFERLLSETGTTIVKCMLHISNEEQRERLQDRLKDPGKNWKFAADDLSTRAKWNDYQRAYEQALQATSTPHAPWYVIPANSKRHRNLMVAQLLVQTLRDMKLRLPPPNLAFKDLVVN
For the molecule B2, in the series “HPLC nucleotide assay [2]”, the Km is 5.70 mM, the Vmax was found to be 860 µM/min, the kcat worked out at 92 s⁻¹ and the kcat/Km came out at 16100 M⁻¹ s⁻¹.
